Test results taken from US20050136004A1 (ZymoGenetics, published 2005).

T1: IL-20RA/IL-20RB heterodimeric receptor (human), on cells (human, UniProt Q9UHF4 30-553; Q6UXL0 30-311)
T1 sequence 1: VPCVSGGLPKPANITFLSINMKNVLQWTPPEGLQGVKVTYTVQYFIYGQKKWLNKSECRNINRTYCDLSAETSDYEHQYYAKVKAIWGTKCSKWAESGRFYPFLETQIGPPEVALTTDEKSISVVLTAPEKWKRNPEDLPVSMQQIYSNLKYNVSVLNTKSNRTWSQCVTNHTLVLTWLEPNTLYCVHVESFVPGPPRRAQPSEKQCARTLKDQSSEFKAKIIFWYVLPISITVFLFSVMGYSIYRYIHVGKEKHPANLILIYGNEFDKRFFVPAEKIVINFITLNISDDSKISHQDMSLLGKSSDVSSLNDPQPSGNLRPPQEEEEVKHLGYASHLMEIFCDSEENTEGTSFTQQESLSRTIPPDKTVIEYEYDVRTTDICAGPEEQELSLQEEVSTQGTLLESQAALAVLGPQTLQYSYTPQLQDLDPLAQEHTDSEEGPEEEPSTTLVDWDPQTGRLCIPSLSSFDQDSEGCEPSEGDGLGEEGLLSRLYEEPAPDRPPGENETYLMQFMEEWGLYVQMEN
T1 sequence 2: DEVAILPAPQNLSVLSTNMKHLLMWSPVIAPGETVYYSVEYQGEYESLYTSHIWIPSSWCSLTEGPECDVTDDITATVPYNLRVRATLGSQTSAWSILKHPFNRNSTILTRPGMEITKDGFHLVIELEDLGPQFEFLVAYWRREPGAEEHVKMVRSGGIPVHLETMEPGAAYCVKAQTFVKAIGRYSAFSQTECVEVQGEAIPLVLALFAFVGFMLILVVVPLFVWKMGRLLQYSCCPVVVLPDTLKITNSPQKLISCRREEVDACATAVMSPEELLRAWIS

T2: IL-20RA (human), on cells (human, UniProt Q9UHF4 30-553)
T2 construct: This id covers the subunit expressed alone on BHK or BaF3/KZ134 transfectants; It is also used for endogenous IL-20RA on human monocytic cells and in human lung tissue; also called ZcytoR7; IL-20RA only
T2 sequence: T1 sequence 1

T3: IL-20RB (human), on cells (human, UniProt Q6UXL0 30-311)
T3 construct: This id covers the subunit expressed alone on BHK or BaF3/KZ134 transfectants; It is also used for endogenous IL-20RB on THP-1 cells; also called DIRS1; pDIRS1
T3 sequence: T1 sequence 2

B1: human IL-20-Bv (purified mature recombinant human IL-20 produced in Baculovirus) (ligand)
chain: LKTLNLGSCVIATNLQEIRNGFSDIRGSVQAKDGNIDIRILRRTESLQDTKPANRCCLLRHLLRLYLDRVFKNYQTPDHYTLRKISSLANSFLTIKKDLRLCHAHMTCHCGEEAMKKYSQILSHFEKLEPQAAVVKALGELDILLQWMEETE
B2: IL-20 (human IL-20, mature polypeptide; preparation or host not specified) (ligand)
chain: B1 chain
notes: also called Zcyto10; IL-20 protein

Assays:
[1] = molecular target: T1, IL-20RA/IL-20RB heterodimeric receptor …; assay: cell-based or functional assay
[2] = molecular target: T2, IL-20RA (human), on cells; assay: radiolabeled ligand binding on stably transfected BHK cells
Description: (§1) The specificity and affinity of IL-20 for its receptor was determined using BHK cells stably transfected with IL-20RA, IL-20RB or both receptor subunits. […] Binding of ¹²⁵I-labeled IL-20 was eliminated in the presence of 100-fold excess of unlabeled IL-20 but not with 100-fold excess of the unrelated cytokine, IL-21.

[3] = molecular target: T3, IL-20RB (human), on cells; assay: as above
Description: as §1

[4] = molecular target: T1, IL-20RA/IL-20RB heterodimeric receptor …; assay: 125I-IL-20 binding on BHK cells expressing IL-20RA and IL-20RB
Description: as §1

Binder | Alamar Blue proliferation of BaF3/KZ134/IL-20RA/IL-20RB cells at 1 pM IL-20 [1] [fold over background] | Alamar Blue proliferation of BaF3/KZ134/IL-20RA/IL-20RB cells at 1 nM IL-20 [1] [fold over background] | binding result [2] | binding result [3] | Kd [4] [nM]
B1 | 2 | ~30 |  |  | 
B2 |  |  | no binding | no binding | ~1.5
